Experimental data as given in paper PMC7866087, “Evaluation of Computationally Designed Peptides against TWEAK, a Cytokine of the Tumour Necrosis Factor Ligand Family” (International Journal of Molecular Sciences, 2021).

Tested on: TWEAK-Fn14 signalling pathway, BRV5 cells
Experiment: Cell-based screening of individual peptides, gene expression microarray in TWEAK-stimulated BRV5 cells
Design: species or system human
Conditions: for BIRC2 expression Z-Score / HSP90B1 expression Z-Score / IL6 expression Z-Score / JUN expression Z-Score / MAP4K4 expression Z-Score / MAPK14 expression Z-Score / NFKB2 expression Z-Score / TNFRSF12A expression Z-Score / TRAF2 expression Z-Score: normalized to NARS2
Summary of the method: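 Serum-starved BRV5 cells were treated with individual peptides at 450 µM, given once or re-dosed hourly, every two hours or every three hours, with or without TWEAK at 25 ng/mL. RNA was harvested after 6 h, and expression of TWEAK-Fn14 downstream genes plus two housekeeping genes was quantified by Fluidigm EvaGreen qPCR as Ct and delta Ct values.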

[1] = TWEAK control T, BRV5, 6 h, replicate column 3
[2] = TWEAK control T, BRV5, 6 h, replicate column 4
[3] = individual peptides, BRV5 + TWEAK, 450 µM, 6 h, mean of replicate columns
[4] = individual peptides, BRV5 + TWEAK, 450 µM, 6 h, replicate column 1
[5] = individual peptides, BRV5 + TWEAK, 450 µM, 6 h, replicate column 2
[6] = individual peptides, BRV5 + TWEAK, 6 h
[7] = individual peptides, BRV5 + TWEAK, 6 h, listed as T

B1: tumour necrosis factor-like weak inducer of apoptosis (protein, UniProt O43508 94-249, looked up)
Tumor necrosis factor ligand …: SAPKGRKTRARRAIAAHYEVHPRPGQDGAQAGVDGTVSGWEEARINSSSPLRYNRQIGEFIVTRAGLYYLYCQVHFDEGKAVYLKLDLLVDGVLALRCLEEFSATAASSLGPQLRLCQVSGLLALRPGSSLRIRTLPWAHLKAAPFLTYFGLFQVH
- BIRC2 mRNA expression (normalized to NARS2) [1]: 1.027
- HSP90B1 mRNA expression (normalized to NARS2) [1]: 3.037
- JUN mRNA expression (normalized to NARS2) [1]: 0.03535
- MAP4K4 mRNA expression (normalized to NARS2) [1]: 0.2587
- MAPK14 mRNA expression (normalized to NARS2) [1]: 0.3748
- NFKB2 mRNA expression (normalized to NARS2) [1]: 0.06251
- TNFRSF12A mRNA expression (normalized to NARS2) [1]: 0.03969
- TRAF2 mRNA expression (normalized to NARS2) [1]: 0.07995
- BIRC2 mRNA expression (normalized to NARS2) [2]: 1.011
- HSP90B1 mRNA expression (normalized to NARS2) [2]: 2.84
- JUN mRNA expression (normalized to NARS2) [2]: 0.03216
- MAP4K4 mRNA expression (normalized to NARS2) [2]: 0.2342
- MAPK14 mRNA expression (normalized to NARS2) [2]: 0.332
- NFKB2 mRNA expression (normalized to NARS2) [2]: 0.06133
- TNFRSF12A mRNA expression (normalized to NARS2) [2]: 0.03763
- TRAF2 mRNA expression (normalized to NARS2) [2]: 0.08704
- BIRC2 mRNA expression (normalized to NARS2) [3]: 0.9889
- HSP90B1 mRNA expression (normalized to NARS2) [3]: 2.734
- IL6 mRNA expression (normalized to NARS2) [3]: 0.00008785
- JUN mRNA expression (normalized to NARS2) [3]: 0.02837
- MAP4K4 mRNA expression (normalized to NARS2) [3]: 0.2098
- MAPK14 mRNA expression (normalized to NARS2) [3]: 0.3339
- NFKB2 mRNA expression (normalized to NARS2) [3]: 0.05526
- TNFRSF12A mRNA expression (normalized to NARS2) [3]: 0.03637
- TRAF2 mRNA expression (normalized to NARS2) [3]: 0.06681
- BIRC2 mRNA expression (normalized to NARS2) [4]: 0.9782
- HSP90B1 mRNA expression (normalized to NARS2) [4]: 2.649
- IL6 mRNA expression (normalized to NARS2) [4]: 0.0001501
- JUN mRNA expression (normalized to NARS2) [4]: 0.02253
- MAP4K4 mRNA expression (normalized to NARS2) [4]: 0.1844
- MAPK14 mRNA expression (normalized to NARS2) [4]: 0.3328
- NFKB2 mRNA expression (normalized to NARS2) [4]: 0.05313
- TNFRSF12A mRNA expression (normalized to NARS2) [4]: 0.03435
- TRAF2 mRNA expression (normalized to NARS2) [4]: 0.05236
- BIRC2 mRNA expression (normalized to NARS2) [5]: 0.9396
- HSP90B1 mRNA expression (normalized to NARS2) [5]: 2.412
- IL6 mRNA expression (normalized to NARS2) [5]: 0.00002557
- JUN mRNA expression (normalized to NARS2) [5]: 0.02345
- MAP4K4 mRNA expression (normalized to NARS2) [5]: 0.162
- MAPK14 mRNA expression (normalized to NARS2) [5]: 0.2958
- NFKB2 mRNA expression (normalized to NARS2) [5]: 0.04407
- TNFRSF12A mRNA expression (normalized to NARS2) [5]: 0.03379
- TRAF2 mRNA expression (normalized to NARS2) [5]: 0.04788
- BIRC2 expression Z-Score [6]: 2.98
- HSP90B1 expression Z-Score [6]: 0.8798
- IL6 expression Z-Score [6]: -1.558
- JUN expression Z-Score [6]: -0.7938
- MAP4K4 expression Z-Score [6]: 0.6195
- MAPK14 expression Z-Score [6]: 2.332
- NFKB2 expression Z-Score [6]: 1.408
- TNFRSF12A expression Z-Score [6]: 1.8
- TRAF2 expression Z-Score [6]: 2.292
- BIRC2 expression Z-Score [7]: 2.9803
- HSP90B1 expression Z-Score [7]: 0.8798
- IL6 expression Z-Score [7]: -1.5585
- JUN expression Z-Score [7]: -0.7938
- MAP4K4 expression Z-Score [7]: 0.6195
- MAPK14 expression Z-Score [7]: 2.3319
- NFKB2 expression Z-Score [7]: 1.4080
- TNFRSF12A expression Z-Score [7]: 1.8000
- TRAF2 expression Z-Score [7]: 2.2919
